This is an account of results in publication PMC5071567.

The target in experiment [1] is transthyretin (UniProt P02766). Conditions: cited from earlier work.
Experiment [2] has as its target megalin (LRP-2) (mouse (endogenous in cultured hippocampal neurons)) (UniProt A2ARV4).

Sequence of megalin (LRP-2) (mouse (endogenous in cultured hippocampal neurons)) (A2ARV4 26-4660): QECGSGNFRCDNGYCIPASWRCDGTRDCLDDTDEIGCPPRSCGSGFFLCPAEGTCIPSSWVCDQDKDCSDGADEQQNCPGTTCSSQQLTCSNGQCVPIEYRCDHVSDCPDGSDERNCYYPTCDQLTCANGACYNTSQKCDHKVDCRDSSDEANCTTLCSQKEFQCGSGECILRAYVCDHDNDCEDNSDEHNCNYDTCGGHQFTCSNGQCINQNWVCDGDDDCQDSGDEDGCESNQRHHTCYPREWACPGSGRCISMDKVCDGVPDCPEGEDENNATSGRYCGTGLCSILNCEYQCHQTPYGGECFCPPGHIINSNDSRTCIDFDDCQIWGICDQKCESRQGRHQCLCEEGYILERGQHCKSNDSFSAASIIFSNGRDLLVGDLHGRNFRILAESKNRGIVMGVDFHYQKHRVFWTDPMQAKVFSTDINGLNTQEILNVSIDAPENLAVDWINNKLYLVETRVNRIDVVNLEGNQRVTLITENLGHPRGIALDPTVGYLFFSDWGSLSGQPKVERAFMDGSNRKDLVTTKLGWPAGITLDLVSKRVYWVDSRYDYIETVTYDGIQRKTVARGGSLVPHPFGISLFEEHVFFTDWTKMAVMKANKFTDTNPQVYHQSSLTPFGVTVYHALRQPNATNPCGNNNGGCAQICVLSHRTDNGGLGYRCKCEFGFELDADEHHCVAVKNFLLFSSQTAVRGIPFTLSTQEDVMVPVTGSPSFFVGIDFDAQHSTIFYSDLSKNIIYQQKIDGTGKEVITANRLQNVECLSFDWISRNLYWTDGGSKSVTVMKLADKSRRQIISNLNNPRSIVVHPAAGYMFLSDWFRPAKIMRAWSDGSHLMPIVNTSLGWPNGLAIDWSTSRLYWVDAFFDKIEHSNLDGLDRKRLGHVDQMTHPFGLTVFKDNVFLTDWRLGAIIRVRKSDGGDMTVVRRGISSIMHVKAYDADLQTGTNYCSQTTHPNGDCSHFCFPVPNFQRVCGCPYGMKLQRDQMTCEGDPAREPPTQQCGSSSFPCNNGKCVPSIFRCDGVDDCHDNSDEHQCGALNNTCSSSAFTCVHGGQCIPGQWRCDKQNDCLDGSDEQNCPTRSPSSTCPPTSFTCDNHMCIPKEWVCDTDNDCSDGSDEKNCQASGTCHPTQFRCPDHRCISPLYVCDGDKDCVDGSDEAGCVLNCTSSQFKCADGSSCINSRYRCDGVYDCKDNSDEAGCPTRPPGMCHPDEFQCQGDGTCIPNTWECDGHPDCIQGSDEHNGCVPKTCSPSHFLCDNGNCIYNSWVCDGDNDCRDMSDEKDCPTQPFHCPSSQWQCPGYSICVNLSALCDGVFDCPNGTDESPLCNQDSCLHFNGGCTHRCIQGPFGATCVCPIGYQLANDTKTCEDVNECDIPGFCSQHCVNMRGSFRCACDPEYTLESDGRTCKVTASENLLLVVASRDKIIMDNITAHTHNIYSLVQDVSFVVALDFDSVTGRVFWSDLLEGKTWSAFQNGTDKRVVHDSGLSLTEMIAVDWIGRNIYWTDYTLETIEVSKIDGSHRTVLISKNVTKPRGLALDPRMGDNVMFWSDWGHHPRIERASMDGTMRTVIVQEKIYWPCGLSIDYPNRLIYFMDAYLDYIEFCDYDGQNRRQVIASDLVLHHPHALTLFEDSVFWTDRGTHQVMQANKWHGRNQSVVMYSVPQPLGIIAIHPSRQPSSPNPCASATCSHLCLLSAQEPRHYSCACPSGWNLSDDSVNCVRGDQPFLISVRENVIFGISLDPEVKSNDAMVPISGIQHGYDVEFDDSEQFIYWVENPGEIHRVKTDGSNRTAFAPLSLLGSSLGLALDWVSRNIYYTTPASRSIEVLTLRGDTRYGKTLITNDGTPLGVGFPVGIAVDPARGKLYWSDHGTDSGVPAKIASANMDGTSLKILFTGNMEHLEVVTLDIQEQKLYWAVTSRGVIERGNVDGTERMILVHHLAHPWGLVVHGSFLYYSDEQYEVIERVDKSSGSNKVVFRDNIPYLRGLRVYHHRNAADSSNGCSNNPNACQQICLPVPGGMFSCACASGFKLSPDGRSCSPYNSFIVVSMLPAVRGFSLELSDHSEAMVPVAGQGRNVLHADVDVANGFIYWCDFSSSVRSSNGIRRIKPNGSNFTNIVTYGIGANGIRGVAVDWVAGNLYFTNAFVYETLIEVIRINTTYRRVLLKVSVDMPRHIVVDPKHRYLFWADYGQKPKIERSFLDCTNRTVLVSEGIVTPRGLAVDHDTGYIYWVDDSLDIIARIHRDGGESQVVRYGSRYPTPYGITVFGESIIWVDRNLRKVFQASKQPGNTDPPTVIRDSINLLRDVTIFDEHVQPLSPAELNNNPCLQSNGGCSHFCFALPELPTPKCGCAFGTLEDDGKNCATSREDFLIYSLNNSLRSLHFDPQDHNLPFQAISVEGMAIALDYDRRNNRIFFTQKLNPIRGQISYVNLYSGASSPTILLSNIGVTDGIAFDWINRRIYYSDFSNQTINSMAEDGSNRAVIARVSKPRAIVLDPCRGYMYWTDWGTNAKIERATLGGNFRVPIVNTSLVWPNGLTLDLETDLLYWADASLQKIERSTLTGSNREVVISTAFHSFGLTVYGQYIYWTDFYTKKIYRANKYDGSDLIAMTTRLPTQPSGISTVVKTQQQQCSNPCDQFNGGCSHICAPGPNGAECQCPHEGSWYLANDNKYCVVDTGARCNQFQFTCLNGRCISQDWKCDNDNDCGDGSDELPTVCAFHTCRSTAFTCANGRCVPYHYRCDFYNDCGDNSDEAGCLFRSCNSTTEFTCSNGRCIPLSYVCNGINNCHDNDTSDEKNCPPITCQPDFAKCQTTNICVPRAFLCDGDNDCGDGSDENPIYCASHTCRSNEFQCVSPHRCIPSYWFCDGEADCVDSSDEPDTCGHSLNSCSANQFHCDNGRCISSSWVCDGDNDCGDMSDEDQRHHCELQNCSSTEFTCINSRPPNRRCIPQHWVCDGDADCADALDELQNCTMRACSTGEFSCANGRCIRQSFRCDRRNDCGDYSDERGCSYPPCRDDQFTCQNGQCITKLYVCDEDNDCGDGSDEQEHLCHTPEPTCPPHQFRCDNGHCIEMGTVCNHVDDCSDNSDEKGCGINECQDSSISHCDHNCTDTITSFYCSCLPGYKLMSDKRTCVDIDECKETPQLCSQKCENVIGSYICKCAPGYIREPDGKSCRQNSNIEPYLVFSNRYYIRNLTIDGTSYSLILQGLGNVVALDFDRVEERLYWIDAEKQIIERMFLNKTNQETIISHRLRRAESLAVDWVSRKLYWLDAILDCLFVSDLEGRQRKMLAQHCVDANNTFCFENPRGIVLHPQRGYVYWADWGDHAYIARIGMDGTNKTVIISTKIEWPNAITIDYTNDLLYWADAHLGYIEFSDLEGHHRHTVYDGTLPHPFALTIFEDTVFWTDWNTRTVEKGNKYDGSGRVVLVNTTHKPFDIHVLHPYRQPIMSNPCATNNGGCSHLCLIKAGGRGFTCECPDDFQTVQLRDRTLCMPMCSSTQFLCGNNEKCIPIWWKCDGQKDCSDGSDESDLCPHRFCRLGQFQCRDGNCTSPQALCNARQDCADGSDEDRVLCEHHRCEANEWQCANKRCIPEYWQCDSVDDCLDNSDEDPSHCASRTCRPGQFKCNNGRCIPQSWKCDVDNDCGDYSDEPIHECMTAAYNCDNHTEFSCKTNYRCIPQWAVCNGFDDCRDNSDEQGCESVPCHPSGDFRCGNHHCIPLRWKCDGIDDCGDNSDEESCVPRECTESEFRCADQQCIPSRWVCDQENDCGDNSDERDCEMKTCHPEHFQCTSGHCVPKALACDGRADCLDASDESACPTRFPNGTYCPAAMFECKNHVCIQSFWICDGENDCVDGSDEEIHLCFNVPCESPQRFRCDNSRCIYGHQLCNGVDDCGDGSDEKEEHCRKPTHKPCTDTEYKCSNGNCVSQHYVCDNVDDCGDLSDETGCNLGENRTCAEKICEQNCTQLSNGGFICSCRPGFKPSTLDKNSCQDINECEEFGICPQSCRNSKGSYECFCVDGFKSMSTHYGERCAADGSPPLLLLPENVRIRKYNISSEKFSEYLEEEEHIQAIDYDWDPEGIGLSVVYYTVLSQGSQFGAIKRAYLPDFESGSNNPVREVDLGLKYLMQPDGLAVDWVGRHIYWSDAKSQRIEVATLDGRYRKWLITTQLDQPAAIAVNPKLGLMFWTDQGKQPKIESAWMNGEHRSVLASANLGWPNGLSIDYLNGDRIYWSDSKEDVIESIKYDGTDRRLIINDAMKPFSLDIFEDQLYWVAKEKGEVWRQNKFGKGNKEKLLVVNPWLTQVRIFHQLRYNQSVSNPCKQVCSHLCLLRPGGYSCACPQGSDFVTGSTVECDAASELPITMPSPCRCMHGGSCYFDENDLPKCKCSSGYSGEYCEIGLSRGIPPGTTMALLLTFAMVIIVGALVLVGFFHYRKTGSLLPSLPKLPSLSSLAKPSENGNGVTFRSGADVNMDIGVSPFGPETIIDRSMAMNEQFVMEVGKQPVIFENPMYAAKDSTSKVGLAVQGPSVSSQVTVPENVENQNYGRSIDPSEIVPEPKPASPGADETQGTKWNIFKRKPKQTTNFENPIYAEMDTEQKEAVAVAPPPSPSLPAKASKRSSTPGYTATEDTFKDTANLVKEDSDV

Turning to megalin (from UniProt P98164), the Kd (commonly the equilibrium constant for the complex coming apart) in experiment [1] was 500 nM.
On to “recombinant mouse transthyretin (from UniProt P07309 21-147) (ligand)”, for which, in experiment [2], the activation of Src (phospho-Tyr416) by western blot in TTR KO cultured hippocampal neurons, 30 min after mouse TTR (55 μg/ml) is 30 to 50%; the rise of CREB phosphorylation (Ser133) by western blot in TTR KO cultured hippocampal neurons stimulated with mouse TTR (55 μg/ml) stood at 20%; the rise of phosphorylated Akt (Ser473) by western blot in TTR KO cultured hippocampal neurons, 30 min after mouse TTR (55 μg/ml) was 23%; the rise of phosphorylated ERK by western blot in TTR KO cultured hippocampal neurons, 30 min after mouse TTR (55 μg/ml) was found to be 35%.
